Among the data in patent publication US20120058906A1 (published 2012) are ECL signal values, retold here.

For assay [1], the target named is T1, rHuman Erythropoietin R/Fc Chimera, CF (R&D Systems Cat#963-ER) (human, UniProt P19235 25-250).
T1 construct: Bought reagent; also called EPO R/Fc; Epo R; Fc part of the bought chimera not given
T1 sequence: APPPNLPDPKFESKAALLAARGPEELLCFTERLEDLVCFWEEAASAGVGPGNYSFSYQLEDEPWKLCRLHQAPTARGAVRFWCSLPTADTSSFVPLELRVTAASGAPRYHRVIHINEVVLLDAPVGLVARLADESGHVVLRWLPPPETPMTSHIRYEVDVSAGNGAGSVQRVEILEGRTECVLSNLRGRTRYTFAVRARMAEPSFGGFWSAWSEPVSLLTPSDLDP
Nature of the assay: ECL (MSD multi-spot), antigen spotted on plate; Fab 176.3 nM; blank spot 346.

In assay [2] the target is T2, Recombinant Human DLL4 (R&D Systems Cat#1506-D4/CF) (human, UniProt Q9NR61 27-524).
T2 construct: Bought reagent; also called delta-like protein 4
Described as above.

For assay [3], the target named is T3, rHuman ErbB2/Fc Chimera, CF (R&D Systems Cat#1129-ER) (human, UniProt P04626 23-652).
T3 construct: Bought reagent; also called HER2/neu; human epidermal growth factor 2 receptor; Fc part of the bought chimera not given
The description is as above.

The target in assay [4] is T4, rHuman Notch-1/Fc Chimera, CF (R&D Systems Cat#3647-TK) (human, UniProt P46531 19-526).
T4 construct: Bought reagent; Fc part of the bought chimera not given
The assay is described as above.

For assay [5], the target named is T5, rHuman CD44/Fc Chimera, CF (R&D Systems Cat#3660-CD) (human, UniProt P16070 21-220).
T5 construct: Bought reagent; Fc part of the bought chimera not given
Described as above.

Assay [6] deals with T6, rHuman IGF-1 sR (IGF-1 sR), CF (R&D Systems Cat#391-GR) (human, UniProt P08069 31-932).
T6 construct: Bought soluble receptor; also called insulin-like growth factor-1 soluble receptor; IGF-R1
The description is as above.

In assay [7] the target is T7, rHuman P-Cadherin/Fc Chimera, CF (R&D Systems Cat#861-PC) (human, UniProt P22223 108-654).
T7 construct: Bought reagent; also called CDH3; Fc part of the bought chimera not given
Described as above.

The target of assay [8] is T8, rHuman IGF-1 sR (IGF-1 sR), CF (R&D Systems Cat#391-GR) (human, UniProt P08069 31-932).
T8 construct: Purchased soluble receptor; also called insulin-like growth factor-1 soluble receptor; IGF-R1
Briefly: MSD ECL multi-spot plate, antigen immobilized; Fab 1000 nM; blank spot 427.

The target of assay [9] is T9, rHuman P-Cadherin/Fc Chimera, CF (R&D Systems Cat#861-PC) (human, UniProt P22223 108-654).
T9 construct: Purchased Fc chimera; not shown: Fc portion of the purchased chimera
The assay is described as above.

Assay [10] deals with T10, rHuman IGF-1 sR (insulin-like growth factor-1 soluble receptor), CF (R&D Systems Cat#391-GR) (human, UniProt P08069 31-932).
T10 construct: Bought soluble receptor; also called IGF-R1
Nature of the assay: ECL (MSD multi-spot), antigen on plate, Fab 2 nM.

In assay [11] the target is T11, rHuman P-Cadherin/Fc Chimera, CF (R&D Systems Cat#861-PC) (human, UniProt P22223 108-654).
T11 construct: Bought Fc chimera; also called CDH3; not shown: Fc of the bought chimera
Nature of the assay: ECL (MSD multi-spot), antigen on plate, Fab 2 nM.

The target of assay [12] is T12, rHuman Erythropoietin R/Fc Chimera, CF (R&D Systems Cat#963-ER) (human, UniProt P19235 25-250).
T12 construct: Bought Fc chimera; also called EPO R/Fc; Epo R; not shown: Fc of the bought chimera
T12 sequence: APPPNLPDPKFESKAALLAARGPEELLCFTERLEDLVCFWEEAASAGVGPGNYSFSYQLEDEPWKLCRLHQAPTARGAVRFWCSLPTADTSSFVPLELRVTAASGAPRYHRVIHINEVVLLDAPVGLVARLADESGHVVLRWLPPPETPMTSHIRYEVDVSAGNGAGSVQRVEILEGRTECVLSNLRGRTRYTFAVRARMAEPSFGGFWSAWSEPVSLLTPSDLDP
Briefly: ECL (MSD multi-spot), antigen on plate, Fab 2 nM.

In assay [13] the target is T13, Recombinant Human DLL4 (R&D Systems Cat#1506-D4/CF) (human, UniProt Q9NR61 27-524).
T13 construct: Bought recombinant protein; also called delta-like protein 4
Nature of the assay: ECL (MSD multi-spot), antigen on plate, Fab 2 nM.

For assay [14], the target named is T14, rHuman ErbB2/Fc Chimera, CF (R&D Systems Cat#1129-ER) (human, UniProt P04626 23-652).
T14 construct: Bought Fc chimera; also called HER2/neu; not shown: Fc of the bought chimera
Briefly: ECL (MSD multi-spot), antigen on plate, Fab 2 nM.

In assay [15] the target is T15, rHuman EGF R/Fc Chimera, CF (R&D Systems Cat#344-ER) (human, UniProt P00533 25-645).
T15 construct: Bought Fc chimera; also called ErbB-1; not shown: Fc of the bought chimera
Nature of the assay: ECL (MSD multi-spot), antigen on plate, Fab 2 nM.

The target of assay [16] is T16, rHuman HGF R/c-MET/Fc Chimera, CF (R&D Systems Cat#358-MT/CF) (human, UniProt P08581 25-932).
T16 construct: Bought Fc chimera; also called HGF R/Fc; not shown: Fc of the bought chimera
Nature of the assay: ECL (MSD multi-spot), antigen on plate, Fab 2 nM.

Assay [17] has as its target T17, rHuman Notch-1/Fc Chimera, CF (R&D Systems Cat#3647-TK) (human, UniProt P46531 19-526).
T17 construct: Bought Fc chimera; not shown: Fc of the bought chimera
Nature of the assay: ECL (MSD multi-spot), antigen on plate, Fab 2 nM.

Assay [18] concerns the target T18, rHuman CD44/Fc Chimera, CF (R&D Systems Cat#3660-CD) (human, UniProt P16070 21-220).
T18 construct: Bought Fc chimera; not shown: Fc of the bought chimera
Nature of the assay: ECL (MSD multi-spot), antigen on plate, Fab 2 nM.
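Note: blank spot per well as comparator with Hit at signal to blank ratio of 4 or more.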

B1: Fab VH1-46_IGHD3-10*01_IGHJ4*01 & B3_IGKJ1*01 (Fab, V domains shown)
VH: QVQLVQSGAEVKKPGASVKVSCKASGYTFTSYYMHWVRQAPGQGLEWMGIINPSGGSTSYAQKFQGRVTMTRDTSTSTVYMELSSLRSEDTAVYYCAREYYYGSGSYYNDYFDYWGQGTLVTVSS
VL: not shown
notes: also called IGHV1-46*01
Turning to B1, the ECL signal in assay [1] worked out at 3520; in assay [2] it was 460; in assay [3], 448; in assay [4], 664; in assay [5] it was 376; in assay [6], 393. This molecule also yielded an ECL signal in assay [7] of 532.

B2: Fab VH5-51_IGHD5-18*01>3_IGHJ4*01_G100R & V3-4_IGLJ1*01 (Fab, V domains shown)
VH: EVQLVQSGAEVKKPGESLKISCKGSGYSFTSYWIGWVRQMPGKGLEWMGIIYPGDSDTRYSPSFQGQVTISADKSISTAYLQWSSLKASDTAMYYCARRRYSYGYDYFDYWGQGTLVTVSS
VL: QTVVTQEPSFSVSPGGTVTLTCGLSSGSVSTSYYPSWYQQTPGQAPRTLIYSTNTRSSGVPDRFSGSILGNKAALTITGAQADDESDYYCVLYMGSGISYVFGTGTKVTVL
notes: It was expressed as a Fab: CH1 with tags from Plasmid A and lambda CL from Plasmid E; also called Fab No. 23
Consider B2, for which the ECL signal in assay [8] amounted to 733 ECL signal; in [9], 762 ECL signal.

B3: Fab VH1-46_IGHD6-6*01_IGHJ1*01_S102A_S103P_S104F & L6_IGKJ1*01_S30N (Fab, V domains shown)
VH: QVQLVQSGAEVKKPGASVKVSCKASGYTFTSYYMHWVRQAPGQGLEWMGIINPSGGSTSYAQKFQGRVTMTRDTSTSTVYMELSSLRSEDTAVYYCAREEYAPFSAEYFQHWGQGTLVTVSS
VL: EIVLTQSPATLSLSPGERATLSCRASQSVNSYLAWYQQKPGQAPRLLIYDASNRATGIPARFSGSGSGTDFTLTISSLEPEDFAVYYCQQRSNWPPWTFGQGTKVEIKR
notes: Fab
On to B3, for which the ECL signal stood at 296 ECL signal in assay [10]; 395 ECL signal in assay [11]; 294 ECL signal in [12]; 11400 ECL signal in assay [13]; 138 ECL signal in assay [14]; 171 ECL signal in assay [15]. Besides, the ECL signal in [16] was 207 ECL signal; in [17] it was 274 ECL signal; in [18], 209 ECL signal.
